Consider one substance from patent US20250333481A1.

This experiment deals with chimeric receptor consisting of extracellular domain of BDNF receptor TrkB and transmembrane domain and cytoplasmic domain of thrombopoietin receptor c-Mpl. The experiment is described as follows: cell-based or functional assay.

Take “recombinant wild-type hBDNF (Abcam) (from UniProt P23560 129-247) (ligand)”: the EC50, cell proliferation of BaF/TrkB·c-Mpl chimera cells (MTS, absorbance at 490 nM) was found to be 1.19 nM.
